Reference: patent US7132258B1, “Nucleic acid encoding vitamin D receptor related polypeptide” (University of Massachusetts, priority 1998, dated 2006)

Tests used:
[1] = target: T1, RXR (full-length hRXRα) (Homo sapiens, UniProt P19793); experiment: Yeast two-hybrid interaction with RXR; type: binding; settings: β-galactosidase ONPG assay, 1 μM ligand or vehicle
T1 construct: RXR (full-length hRXRα); expressed in transfected cells; host or cells: Saccharomyces cerevisiae Y190
T1 sequence (P19793 1-462): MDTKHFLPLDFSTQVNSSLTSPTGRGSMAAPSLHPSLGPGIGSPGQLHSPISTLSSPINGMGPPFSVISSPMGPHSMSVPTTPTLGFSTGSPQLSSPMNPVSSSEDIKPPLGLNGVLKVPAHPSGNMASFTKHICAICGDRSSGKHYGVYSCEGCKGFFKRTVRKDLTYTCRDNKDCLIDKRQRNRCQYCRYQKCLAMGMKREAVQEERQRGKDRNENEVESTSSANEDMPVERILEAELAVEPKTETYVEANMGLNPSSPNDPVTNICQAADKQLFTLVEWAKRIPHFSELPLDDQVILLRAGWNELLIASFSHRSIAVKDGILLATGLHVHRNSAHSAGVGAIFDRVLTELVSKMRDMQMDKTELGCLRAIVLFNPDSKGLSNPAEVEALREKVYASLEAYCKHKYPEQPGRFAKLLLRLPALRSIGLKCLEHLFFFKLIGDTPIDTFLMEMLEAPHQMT
T1 sequence (Q9Y6Q9 401-1204 E704Q partner limits assumed): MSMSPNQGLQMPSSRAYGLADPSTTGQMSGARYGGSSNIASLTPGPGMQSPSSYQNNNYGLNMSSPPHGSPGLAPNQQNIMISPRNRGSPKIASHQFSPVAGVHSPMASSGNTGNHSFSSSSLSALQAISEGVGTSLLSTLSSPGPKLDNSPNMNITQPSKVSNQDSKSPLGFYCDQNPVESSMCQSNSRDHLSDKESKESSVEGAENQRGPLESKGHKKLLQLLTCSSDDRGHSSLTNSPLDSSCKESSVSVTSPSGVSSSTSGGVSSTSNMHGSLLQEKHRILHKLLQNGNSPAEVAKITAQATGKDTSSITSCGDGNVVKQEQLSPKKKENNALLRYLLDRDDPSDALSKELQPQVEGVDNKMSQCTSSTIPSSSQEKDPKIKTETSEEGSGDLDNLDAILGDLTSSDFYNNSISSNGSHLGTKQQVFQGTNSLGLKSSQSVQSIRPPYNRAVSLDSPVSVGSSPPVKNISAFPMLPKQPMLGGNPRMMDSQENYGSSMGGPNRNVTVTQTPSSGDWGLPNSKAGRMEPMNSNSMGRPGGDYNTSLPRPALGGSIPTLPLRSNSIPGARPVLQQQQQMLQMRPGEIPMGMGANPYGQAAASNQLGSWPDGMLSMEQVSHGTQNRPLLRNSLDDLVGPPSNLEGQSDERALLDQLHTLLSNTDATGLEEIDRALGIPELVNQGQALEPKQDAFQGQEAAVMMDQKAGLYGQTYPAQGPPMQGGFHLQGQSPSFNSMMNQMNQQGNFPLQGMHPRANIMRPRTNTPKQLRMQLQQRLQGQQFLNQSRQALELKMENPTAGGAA
Experimental: (§1) The protein—protein interactions between RAC3 and several steroid/nuclear receptors were analyzed by the yeast two-hybrid system. The original two-hybrid clone, RAC3.1 in pGAD10 vector, was retransformed together with yeast expression vectors for Gal4 DBD fusion of selected hormone receptor genes into Y190 cells. The receptors used include RAR (full-length hRARα), RXR (full-length hRXRα), VDR (LBD of human Vitamin D receptor), PPAR (LBD of mPPARα), TR (LBD) of hTRβ), COUP (LBD of COUP-TFI). Three independent colonies from each transformation were selected and analyzed for expression of […] activities by liquid ONPG assay (FIG. 6) after treatment with 1 μM of corresponding ligands (closed bars), or with equal concentration of vehicle alone (open bars). […] The ligands used in these experiments were atRA, VitD3 (1,25-dihydroxyvitamin D3), and Wy (Wy 14,642). […] In the absence of ligand, RAC3 can interact with RAR and PPAR.

[2] = target: T2, TR (LBD) of hTRβ (Homo sapiens, UniProt P10828); experiment: Yeast two-hybrid interaction with TR; type: binding; settings: β-galactosidase ONPG assay, 1 μM ligand or vehicle
T2 construct: TR (LBD) of hTRβ); expressed in transfected cells; host or cells: Saccharomyces cerevisiae Y190
T2 sequence (P10828 217-461 limits assumed): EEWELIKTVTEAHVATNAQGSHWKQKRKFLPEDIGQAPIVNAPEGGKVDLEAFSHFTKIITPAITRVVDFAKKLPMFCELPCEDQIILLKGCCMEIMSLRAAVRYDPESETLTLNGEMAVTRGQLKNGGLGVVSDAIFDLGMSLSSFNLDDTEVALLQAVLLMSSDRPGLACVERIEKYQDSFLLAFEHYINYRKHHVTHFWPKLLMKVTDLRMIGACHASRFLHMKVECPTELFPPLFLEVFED
T2 sequence (Q9Y6Q9 401-1204 E704Q partner limits assumed): T1 sequence (Q9Y6Q9 401-1204 E704Q partner limits assumed)
Experimental: as §1

[3] = target: T3, human progesterone receptor (hPR) (Homo sapiens, UniProt P06401); experiment: Coactivation of hPR on MMTV-LTR luciferase reporter in CV-1 cells; type: cell-based; settings: coexpressed RAC3, 100 nM progesterone
T3 construct: expressed in transfected cells; host or cells: CV-1 monkey kidney cells
T3 sequence (P06401 whole entry): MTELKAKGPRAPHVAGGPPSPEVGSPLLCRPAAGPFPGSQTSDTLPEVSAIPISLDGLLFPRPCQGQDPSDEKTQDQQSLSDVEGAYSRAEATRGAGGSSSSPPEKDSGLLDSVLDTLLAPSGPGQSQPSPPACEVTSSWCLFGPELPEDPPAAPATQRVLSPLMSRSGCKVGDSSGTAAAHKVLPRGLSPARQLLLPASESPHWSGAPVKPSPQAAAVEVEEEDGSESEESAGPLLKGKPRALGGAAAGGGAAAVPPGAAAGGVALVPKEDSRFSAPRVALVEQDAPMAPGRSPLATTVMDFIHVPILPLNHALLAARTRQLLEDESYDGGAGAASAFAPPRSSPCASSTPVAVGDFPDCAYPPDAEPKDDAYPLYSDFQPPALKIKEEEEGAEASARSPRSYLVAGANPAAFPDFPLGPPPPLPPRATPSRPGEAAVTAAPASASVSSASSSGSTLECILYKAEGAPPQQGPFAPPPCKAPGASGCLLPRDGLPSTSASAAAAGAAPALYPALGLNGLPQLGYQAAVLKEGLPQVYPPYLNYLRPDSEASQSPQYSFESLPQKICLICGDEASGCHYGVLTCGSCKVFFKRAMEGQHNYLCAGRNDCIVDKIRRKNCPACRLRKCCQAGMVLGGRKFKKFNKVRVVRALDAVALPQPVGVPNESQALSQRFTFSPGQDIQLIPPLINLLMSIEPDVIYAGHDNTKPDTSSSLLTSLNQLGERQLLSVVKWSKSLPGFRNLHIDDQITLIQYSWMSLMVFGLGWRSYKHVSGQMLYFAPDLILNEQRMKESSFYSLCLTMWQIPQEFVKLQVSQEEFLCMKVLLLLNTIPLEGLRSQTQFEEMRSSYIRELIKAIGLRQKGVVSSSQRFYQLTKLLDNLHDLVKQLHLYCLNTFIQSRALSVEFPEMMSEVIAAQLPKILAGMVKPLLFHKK
T3 sequence (Q9Y6Q9 with tags, fused parts or gaps isoform Q9Y6Q9-5 D131E/G132A/T187P/E704Q/DEL1268-1272 partner): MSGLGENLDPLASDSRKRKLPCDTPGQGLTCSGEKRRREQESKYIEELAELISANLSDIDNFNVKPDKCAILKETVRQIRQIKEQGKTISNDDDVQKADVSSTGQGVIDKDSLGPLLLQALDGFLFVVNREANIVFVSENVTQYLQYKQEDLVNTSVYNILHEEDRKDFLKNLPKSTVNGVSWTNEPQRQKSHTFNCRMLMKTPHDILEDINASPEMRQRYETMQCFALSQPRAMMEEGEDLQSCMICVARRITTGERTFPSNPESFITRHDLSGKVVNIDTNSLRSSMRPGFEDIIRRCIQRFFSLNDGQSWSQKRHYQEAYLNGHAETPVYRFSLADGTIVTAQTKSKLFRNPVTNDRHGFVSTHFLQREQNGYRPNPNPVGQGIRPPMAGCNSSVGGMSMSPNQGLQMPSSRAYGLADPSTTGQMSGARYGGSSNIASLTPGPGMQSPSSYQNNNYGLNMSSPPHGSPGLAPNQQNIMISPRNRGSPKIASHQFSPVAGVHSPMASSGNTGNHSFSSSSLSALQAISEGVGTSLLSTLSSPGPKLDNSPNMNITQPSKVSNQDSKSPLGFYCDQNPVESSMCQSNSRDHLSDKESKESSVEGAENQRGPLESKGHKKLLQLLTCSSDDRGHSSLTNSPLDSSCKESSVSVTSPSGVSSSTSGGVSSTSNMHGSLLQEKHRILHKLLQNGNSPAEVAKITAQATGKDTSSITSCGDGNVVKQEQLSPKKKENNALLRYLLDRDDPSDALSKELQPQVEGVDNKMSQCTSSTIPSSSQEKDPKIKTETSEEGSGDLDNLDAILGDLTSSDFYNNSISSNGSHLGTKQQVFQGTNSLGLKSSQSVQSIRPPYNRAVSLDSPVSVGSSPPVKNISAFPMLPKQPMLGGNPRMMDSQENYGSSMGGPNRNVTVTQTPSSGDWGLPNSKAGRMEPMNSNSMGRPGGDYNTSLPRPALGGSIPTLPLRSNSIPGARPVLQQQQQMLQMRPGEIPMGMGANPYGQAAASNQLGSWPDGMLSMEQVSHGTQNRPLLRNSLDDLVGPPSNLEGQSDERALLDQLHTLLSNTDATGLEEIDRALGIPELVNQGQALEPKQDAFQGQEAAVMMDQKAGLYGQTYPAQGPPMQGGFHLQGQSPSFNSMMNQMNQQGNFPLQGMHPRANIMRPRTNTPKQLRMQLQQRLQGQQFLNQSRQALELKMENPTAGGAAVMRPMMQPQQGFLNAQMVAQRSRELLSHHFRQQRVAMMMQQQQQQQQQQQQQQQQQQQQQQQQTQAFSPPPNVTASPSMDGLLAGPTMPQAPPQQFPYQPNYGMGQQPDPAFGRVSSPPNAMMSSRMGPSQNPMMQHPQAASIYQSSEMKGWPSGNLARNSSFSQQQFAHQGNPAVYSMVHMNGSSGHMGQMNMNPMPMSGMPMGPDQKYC
Experimental: In this experiment, transfected cells were treated with or without 100 nM of progesterone at presence or absence of coexpressed RAC3 or SRC-1 in CV-1 cells.
Thus, RAC3 is a bona fide transcriptional coactivator for mammalian steroid/nuclear hormone receptors.

[4] = target: T4, VDR (LBD of human Vitamin D receptor) (Homo sapiens, UniProt P11473); experiment: Yeast two-hybrid interaction with VDR; type: binding; settings: β-galactosidase ONPG assay, 1 μM ligand or vehicle
T4 construct: VDR (LBD of human Vitamin D receptor); expressed in transfected cells; host or cells: Saccharomyces cerevisiae Y190
T4 sequence (P11473 127-423 limits assumed): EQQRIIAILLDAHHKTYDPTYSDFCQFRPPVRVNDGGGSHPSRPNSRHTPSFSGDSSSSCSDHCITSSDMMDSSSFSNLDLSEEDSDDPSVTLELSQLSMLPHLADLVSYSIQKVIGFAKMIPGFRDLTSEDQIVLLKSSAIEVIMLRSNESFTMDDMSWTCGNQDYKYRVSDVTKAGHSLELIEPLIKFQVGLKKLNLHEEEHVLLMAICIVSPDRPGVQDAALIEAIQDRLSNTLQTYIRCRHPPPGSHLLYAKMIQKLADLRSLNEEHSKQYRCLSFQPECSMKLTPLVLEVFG
T4 sequence (Q9Y6Q9 401-1204 E704Q partner limits assumed): T1 sequence (Q9Y6Q9 401-1204 E704Q partner limits assumed)
Experimental: as §1

- interaction with RXR [1]: ligand-dependent manner
- interaction with TR [2]: ligand-dependent manner
- transcriptional activation by PR on the MMTV-LTR promoter [3]: enhanced transcriptional activation
- interaction with VDR [4]: ligand-dependent manner
Substance: RAC3: transcriptional coactivator of steroid/nuclear receptors, protein of about 1417 amino acids (SEQ ID NO:2); RAC3.1 is the two-hybrid clone, amino acids 401–1204
